Assay results published in patent publication US20160009801A1 (EMORY UNIVERSITY, published 2016).

T1: wild-type murine GPIba on WT (C57BL/6J) mouse platelets (mouse, UniProt O35930 17-734)
T1 construct: whole, on cells; also called mouse GPIba; WT mouse platelets
T1 sequence (looked up): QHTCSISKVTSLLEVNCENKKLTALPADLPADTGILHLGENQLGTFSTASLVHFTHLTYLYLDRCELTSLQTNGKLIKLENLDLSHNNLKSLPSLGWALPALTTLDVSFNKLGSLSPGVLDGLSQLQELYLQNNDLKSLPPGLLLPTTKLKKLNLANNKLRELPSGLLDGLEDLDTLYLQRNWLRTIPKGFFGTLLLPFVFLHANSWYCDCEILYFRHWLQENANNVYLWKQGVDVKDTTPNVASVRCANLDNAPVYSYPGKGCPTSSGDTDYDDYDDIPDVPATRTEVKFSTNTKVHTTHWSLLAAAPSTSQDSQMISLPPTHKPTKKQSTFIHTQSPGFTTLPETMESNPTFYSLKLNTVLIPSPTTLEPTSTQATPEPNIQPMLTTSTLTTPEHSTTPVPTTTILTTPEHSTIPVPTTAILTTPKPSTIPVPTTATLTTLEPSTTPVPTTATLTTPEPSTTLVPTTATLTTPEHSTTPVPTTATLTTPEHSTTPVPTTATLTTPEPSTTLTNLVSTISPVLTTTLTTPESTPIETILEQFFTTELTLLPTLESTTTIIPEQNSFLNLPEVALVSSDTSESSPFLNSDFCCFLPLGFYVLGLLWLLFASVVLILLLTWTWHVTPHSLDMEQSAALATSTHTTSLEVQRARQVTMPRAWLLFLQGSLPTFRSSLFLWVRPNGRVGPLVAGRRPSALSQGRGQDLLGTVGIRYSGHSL


Tests used:
[1] = target: T2, purified human GPIb-IX complex (human, UniProt P07359 17-652; P13224 26-206; P14770 17-177); experiment: ELISA, purified mAb titrated on immobilized purified human GPIb-IX, fitted Kd
T2 construct: mature; Native complex purified from outdated human apheresis platelets; also called purified human glycoprotein (GP)Ib-IX; immobilized GPIb-IX
Procedure: (A, C, D) GPIb-IX or the peptide was immobilized in microtiter plates. Purified mAbs, each identified by the clone name and colored as indicated, and negative controls, in the form of mouse IgG or BSA, were added to the coated wells. The bound Ab was detected with biotinylated goat anti-mouse IgG. Data are presented as the mean SD (n=3).
After incubation in the blocking buffer (20 mmol L⁻¹ HEPES, 0.2 mol L⁻¹ NaCl, 0.05% Tween-20, 2% BSA, pH 7.4) at room temperature (RT) for 2 h, different doses of normal mouse IgG or purified mAb dissolved in the blocking buffer were added to the wells and incubated for 1 h. The wells were then washed three times with the blocking buffer without BSA and incubated for an additional 1 h with biotinylated goat anti-mouse IgG (1:50 in the blocking buffer). After three washes, the wells were incubated for 1 h with streptavidin alkaline phosphatase (1:2000 in the blocking buffer).

[2] = target: T1, wild-type murine GPIba on WT (C57BL/6J) …; experiment: flow cytometry, biotin-labeled 5G6 on mouse whole blood, gated on platelets, FITC-streptavidin
Procedure: The binding to platelets was analyzed by flow cytometry with gating specific on platelets.

[3] = target: T3, human glycoprotein Ib alpha (GPIba) on platelets (human, UniProt P07359 17-652); experiment: flow cytometry on washed human platelets, FITC goat anti-mouse IgG
T3 construct: whole, on cells; On platelets GPIba is part of the GPIb-IX-V complex; also called human GPIba; washed human platelets

Binder	Kd [1] [nM]	binding result [2]	binding result [3]
monoclonal antibody 5G6 (antibody, V domains shown, Mouse hybridoma mAb raised against the human GPIba Glu455-Phe478 peptide; also called clone 5G6; 5G6.B4) VH: QVTLKESGPGILQPSQTLSLTCSFSGFSLSTSNMGVVWIRQPSGKGLEWLLHILWNDGKFYNPALKSRLTISKDTYNNQVFLKIANVDTADTATYYCARLFTTTTSGYFDVWGAGTTVTVSS VL: DIQMTQSPASLSASVGETVTITCRASGNIYNYLAWYQQKQGKSPQLLVYNAKTLADGVPSRFSGSGSGTQYSLKINSLQPEDFGSYFCQHFWDTPWTFGGGTKLEIK	3.29	no binding (tested: 4 µg mL^-1)	–
monoclonal antibody 15C6 (antibody, V domains shown, Mouse hybridoma mAb; also called 15C6.D3) VH: QVTLKESGPGILQPSQTLSLTCSFSGFSLSTSNMGVVWIRQSSGKGLEWLLHILWNDGKFYNPALKSRLTISKDTYNNQVFLKIANVDTADTATYYCARLFSTTTSGYFDVWGAGTTVTVSS VL: DIQMTQSPASLSASVGETVTITCRASGNIHNYLAWYQQKQGKSPQLLVYNAETLADGVPSRFSGSESGTQYSLKINSLQPEDFGTYYCQHFWDTPWTFGGGTKLEIK	28.2	–	–
monoclonal antibody 3D1 (antibody, V domains shown, Mouse hybridoma mAb; also called 3D1.C1; 3D1.E3) VH: QIQLVQSGPELKKPGETVKISCKASGYTFTDFAMHWVKQAPRKGLKWMGWINTETGEPTYADDFKGRFAFSLGTSASTAFLQINNLKNEDTATYFCSSDPLDYWGQGTTLTVSS VL: DVVVTQTPLSLPVSFGDQVSISCRSSQSLTNSYGNTYLSWFLHKPGQSPQLLIYEISNRFSGVPDRFSGSGSGTDFTLKISTIKPEDLGIYYCLQGTHQPWTFGGGTKLEIK	–	–	binds
